Assay results: paper PMC7528078, “Single molecule studies reveal that p53 tetramers dynamically bind response elements containing one or two half sites”

Experiments:
[1] = target: T1, AF647-p53 (p53-SNAP labeled with AF647) (human, UniProt P04637 1-393); test: EMSA; sub-nM affinity, assuming tetramer; EMSA: 25 mM HEPES pH 7.9, 50 mM KCl, 2.5 mM MgCl2, 1 mM EDTA, 10% glycerol, 0.1% NP-40, 1 mM DTT, 0.05 mg/mL BSA, room temp 30 min; TIRF: 25 mM Tris pH 7.9, 50; details: protein: recombinant; tags: N-terminal His; C-terminal SNAP tag with AlexaFluor647; chain copies: 4; label: 5' 32P on reverse strand; blunt
T1 sequence (P04637 whole entry): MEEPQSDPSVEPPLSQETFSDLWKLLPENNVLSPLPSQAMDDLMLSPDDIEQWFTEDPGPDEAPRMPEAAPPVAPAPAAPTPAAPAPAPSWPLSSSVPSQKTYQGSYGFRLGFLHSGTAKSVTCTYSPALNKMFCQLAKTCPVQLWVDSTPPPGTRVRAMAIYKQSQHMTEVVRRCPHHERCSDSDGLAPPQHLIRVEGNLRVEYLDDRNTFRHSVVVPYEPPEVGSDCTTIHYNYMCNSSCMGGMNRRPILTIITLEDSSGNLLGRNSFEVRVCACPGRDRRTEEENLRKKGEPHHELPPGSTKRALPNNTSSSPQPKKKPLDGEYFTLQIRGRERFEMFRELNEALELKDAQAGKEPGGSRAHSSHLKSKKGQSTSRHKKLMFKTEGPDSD

[2] = target: T1, AF647-p53 (p53-SNAP labeled with AF647); test: EMSA; complexes at low nM tetramer; EMSA: 25 mM HEPES pH 7.9, 50 mM KCl, 2.5 mM MgCl2, 1 mM EDTA, 10% glycerol, 0.1% NP-40, 1 mM DTT, 0.05 mg/mL BSA, room temp 30 min; TIRF: 25 mM Tris pH 7.9, 50; details: protein: recombinant; tags: N-terminal His; C-terminal SNAP tag with AlexaFluor647; chain copies: 4; label: 5' 32P on reverse strand; blunt
[3] = target: T1, AF647-p53 (p53-SNAP labeled with AF647); test: single-molecule TIRF; apparent upper limit (<=), koff 1.0 s-1, kon(obs) 0.0188 s-1; EMSA: 25 mM HEPES pH 7.9, 50 mM KCl, 2.5 mM MgCl2, 1 mM EDTA, 10% glycerol, 0.1% NP-40, 1 mM DTT, 0.05 mg/mL BSA, room temp 30 min; TIRF: 25 mM Tris pH 7.9, 50; details: protein: recombinant; tags: N-terminal His; C-terminal SNAP tag with AlexaFluor647; chain copies: 4; label: 5' biotin on forward strand; 5' AF647 on reverse strand; 5' overhang 24 nt and 3' overhang 1 nt on forward strand as printed

B1: wild type DNA (EMSA) (dsDNA)
DNA 1: TAGAGCGAACATGTCTAAGCATGCTGGCGTCG
DNA 2: CGACGCCAGCATGCTTAGACATGTTCGCTCTA
Kd [1]: < 1 nM

B2: random DNA (EMSA) (dsDNA)
DNA 1: CGTTCCTAATCGGGTAGGGGCTGACACGAATA
DNA 2: TATTCGTGTCAGCCCCTACCCGATTAGGAACG
binding result [2]: binds

B3: mutant half site DNA (single molecule) (dsDNA)
DNA 1: CGCGTTCATGGTAGAGTCGTGGACTAGAGCGAACATGTCTTTCAAAGGCGGCGTCG
DNA 2: GACGCCGCCTTTGAAAGACATGTTCGCTCTA
Kd [3]: < 13 nM
